Changes are numbered by the printed parent chain. Where “and” joins values, the source holds several entries; their conditions need not be identical. Equal values may be shown once.
How the values were obtained:
[1] = test system: peptide "[…]" (SEQ ID NO: 19); assay: Peptide cyclization assay of butelase 1; assay type: biochemical; conditions: butelase 1 extracted from plant, peptide GLPVSTKPVATRNHV
Experimental: Native and modified amino acids were purchased from Sigma-Aldrich (USA). All peptides used in this manuscript were synthesized in-house using the solid-phase method and HPLC purified. Cyclization assays were performed in 50-μl reaction mixtures containing 20 mM phosphate buffer, ligases (5 to 700 nM) and peptide substrates (10 to 300 μM). Each reaction was performed in triplicate at 37° C. and quenched by adding 5 μl of 1 M HCl solution. The peptides were separated by using a reversed-phase C18 analytical column (150×2.1 mm, Vydac) with a linear gradient from 10% to 50% acetonitrile over 15 min on a Nexera UHPLC system (Shimadzu). For kinetic analysis, the concentrations of WT OaAEP1, mutant OaAEP1, and butelase 1 were fixed at 700 nM, 50 nM, and 20 nM, respectively. The cyclization velocities were calculated by converting the HPLC-peak areas of remained linear precursors or the cyclized products into concentrations. The identity of each HPLC peak was analyzed by MALDI-TOF MS (ABI 4800 MALDI TOF/TOF). […] Comparison for the cyclization efficiency of various OaAEP1 mutants were performed in a volume of 20 μl of the reaction mixture and analyzed by MALDI-TOF MS after 10 mins or 1 hour ligation reaction.
The peptide cyclization activity of mature OaAEP1 was then analyzed using MS and the peptide substrate “[…]” (SEQ ID NO: 18) (FIG. 5A). […]

[2] = test system: ubiquitin and SNAP tag protein; assay: Ligation of two well-folded proteins; assay type: biochemical
Experimental: (a) Fluorescence detection using 02 benzylcytosine-Alexa647 of the SNAP protein and SDS PAGE analysis with Comassie blue staining detection of the protein substrate and ligated products. The reaction is schematically depicted as inset. Cys247Ala ligates well folded protein well. […] (b) As little as 30 nM Cys247Ala catalyze ligation of 100 μM Ubiquitin and 500 μM biotin labelled peptide efficiently in 30 min, at room temperature, in pH 7.4 PBS buffer.
The ability of Cys247Ala to ligate ubiquitin with a peptide was first tested. The three residues“Asn-Gly-Leu” were added to the C-terminus of ubiquitin to make it recognizable by Cys247Ala. Another peptide having N-terminal residues GlyLeu was used as the add-on component. At a protein: peptide molar ratio of 1:5, Cys247Ala catalyzed the ligation of more than 90% ubiquitin with the peptide within 10 min (FIG. 6). An amount of 30 nM of Cys247Ala was enough for the reaction compared to 10-30 μM of sortase A typically required to perform productive ligations. […] Ubiquitin having the same “Asn-Gly-Leu” modification at its C-terminal end and a N-terminal modified SNAP (NEB) tag protein were used as substrates. […] Protein ligation can be performed within minutes at neutral pH and at room temperature.

[3] = test system: OaAEP1; assay: Self-activation (acid-induced self-cleavage) of OaAEP1 and mutants, SDS PAGE; assay type: biochemical, Oldenlandia affinis; conditions: for self-activation (auto-activation): acidic pH
Experimental: To self-activate OaAEP1, 1 mM EDTA and 0.5 mM Tris (2-carboxyethyl) phosphine hydrochloride were added to the immature protein and the pH of the solution was adjusted to 4 with glacial acetic acid. Fractions containing the protein (as analyzed by SDS-PAGE) were pooled and then incubated for 3 to 16 hours at room temperature or 37° C. Protein precipitation at this pH allowed removal of the bulk of the contaminating proteins by centrifugation. Activated proteins were concentrated by ultracentrifugation using a 50 kDa cutoff concentrator (Sartorius) and stored at −80° C.
OaAEP1 was cloned and expressed in E. coli as an ubiquitin fusion protein as reported earlier (FIG. 2) (Harris, K. S., et al., Nat Commun, 2015. 6: p. 10199). Using ion exchange and size exclusion chromatography (SEC), sufficient amounts of pure protein suitable for enzymatic and structural analysis were obtained (FIG. 2B). At the neutral pH of purification (pH=7.4), OaAEP1 was mainly present as a heterodimer, where both monomers are in their zymogenic form, but only one monomer had retained in addition the ubiquitin and N-terminal His-tag, while the fusion moiety was cleaved in the other monomer (labeled as “His-Ub-AEP-FL” and “AEP-FL” in FIG. 2B and FIG. 2C). This heterodimer was subjected to crystallization trials for structural studies (see below). In agreement with reference (Harris, K. S., et al., Nat Commun, 2015. 6: p. 10199), activation of OaAEP1 was optimum for pH values in the range of 3.4-4.0 (FIG. 2D). Following activation, OaAEP1 converts to a monomer in solution according to SEC analysis (“AEP-holo” in FIG. 2C). To test the ability of the protein to be activated in trans, the catalytic residue Cys217 was mutated into Ser217.
Since the crystallization conditions are compatible with OaAEP1 activation, the present crystal structure is likely to have captured one of the conformational states occurring along the activation pathway. To determine whether Gln347 belongs to the segment recognized and cleaved during self-activation, mutagenesis experiments targeting region 346-351 of the OaAEP1 protein were performed (FIG. 4C). The role of Gln347 in OaAEP1 auto-activation was particularly assessed by mutating this residue to Ala, and whether enzyme activation was abolished was examined. Only little impact was found on the mutant enzyme activation (FIG. 4C). Residues Asn346, Asp349 and Asp351 that are next to Gln347 were then targeted. […] Thus, trans-activation requires the presence of at least one of the four Asx/Gln residues (with a slight preference for Asp349 or Asp351) found in this segment of the linker.

[4] = test system: peptide substrate "[…]" (SEQ ID NO: 18); assay: Peptide cyclization assay, kinetic analysis (HPLC/MS); assay type: biochemical; conditions: cyclization of GLPVSTKPVATRNGL, 37° C., enzyme 700 nM
Experimental: Native and modified amino acids were purchased from Sigma-Aldrich (USA). All peptides used in this manuscript were synthesized in-house using the solid-phase method and HPLC purified. Cyclization assays were performed in 50-μl reaction mixtures containing 20 mM phosphate buffer, ligases (5 to 700 nM) and peptide substrates (10 to 300 μM). Each reaction was performed in triplicate at 37° C. and quenched by adding 5 μl of 1 M HCl solution. The peptides were separated by using a reversed-phase C18 analytical column (150×2.1 mm, Vydac) with a linear gradient from 10% to 50% acetonitrile over 15 min on a Nexera UHPLC system (Shimadzu). For kinetic analysis, the concentrations of WT OaAEP1, mutant OaAEP1, and butelase 1 were fixed at 700 nM, 50 nM, and 20 nM, respectively. The cyclization velocities were calculated by converting the HPLC-peak areas of remained linear precursors or the cyclized products into concentrations. The identity of each HPLC peak was analyzed by MALDI-TOF MS (ABI 4800 MALDI TOF/TOF). The velocities were input into GraphPad Prism (GraphPad Software, San Diego) to obtain the Michaelis-Menten curve and the kinetic parameters (kcat and Km). Comparison for the cyclization efficiency of various OaAEP1 mutants were performed in a volume of 20 μl of the reaction mixture and analyzed by MALDI-TOF MS after 10 mins or 1 hour ligation reaction.
The peptide cyclization activity of mature OaAEP1 was then analyzed using MS and the peptide substrate “[…]” (SEQ ID NO: 18) (FIG. 5A). The turn-over rate (kcat) for OaAEP1 is 0.052 s^−1, a value in good agreement with the previous report (Harris, K. S., et al., Nat Commun, 2015. 6: p. 10199). Likewise, the cyclization activity of butelase 1 extracted from plant was measured using the 15 residues peptide “[…]” (SEQ ID NO: 19) (FIG. 5A) leading to a kcat about 90 times faster than OaAEP1 b.

[5] = test system: OaAEP1; assay: Trans-activation of inactive mutants by wild type OaAEP1; assay type: biochemical, Oldenlandia affinis
Description: (a) Schematic illustration of the His-Ub-OaAEP1 construct used with the boundaries of the three regions of the protein indicated and the deduced activation segment. 6-His tag and Ubiquitin tag followed by OaAEP1 (24-474) was synthesized and inserted into pET28b vector. After Ni-NTA affinity purification, about half of Ub-AEP-FL lost the N-terminal fusion tags and was purified in AEP-FL form (53-474), which was eventually crystallized. The enzymatic active form of OaAEP1b, AEP-holo (53-347/351) is the acidic induced self-cleavage product of AEP-FL, which lost the C-terminal auto inhibitory cap domain. (b) SDS PAGE analysis of fractions obtained over the course of chromatographic purification and of dissolved crystals. (c) Size-exclusion chromatography profiles of OaAEP1 before and after activation showing Ub-AEP-FL and AEP-FL heterodimer and the AEP-holo monomer. The elution volumes of standard proteins are indicated for comparison. (d) SDS PAGE analysis of OaAEP1 pH-dependent activation. The activation was performed for 3 hours, and the peak of activation is in between pH 3.4 to 4.
OaAEP1 was cloned and expressed in E. coli as an ubiquitin fusion protein as reported earlier (FIG. 2) (Harris, K. S., et al., Nat Commun, 2015. 6: p. 10199). Using ion exchange and size exclusion chromatography (SEC), sufficient amounts of pure protein suitable for enzymatic and structural analysis were obtained (FIG. 2B). […]
Since the crystallization conditions are compatible with OaAEP1 activation, the present crystal structure is likely to have captured one of the conformational states occurring along the activation pathway. […] The role of Gln347 in OaAEP1 auto-activation was particularly assessed by mutating this residue to Ala, and whether enzyme activation was abolished was examined. […]

[6] = biological target: the molecule itself; assay: size exclusion chromatography (self-association)

B1: butelase 1: AEP1 from Clitoria ternatea, Asx peptide ligase extracted from plant, SEQ ID NO:4 (protein, listed as Clitoria ternatea)
chain: IRDDFLRLPSQASKFFQADDNVEGTRWAVLVAGSKGYVNYRHQADVCHAYQILKKGGLKDENIIVFMYDDIAYNESNPHPGVIINHPYGSDVYKGVPKDYVGEDINPPNFYAVLLANKSALTGTGSGKVLDSGPNDHVFIYYTDHGGAGVLGMPSKPYIAASDLNDVLKKKHASGTYKSIVFYVESCESGSMFDGLLPEDHNIYVMGASDTGESSWVTYCPLQHPSPPPEYDVCVGDLFSVAWLEDCDVHNLQTETFQQQYEVVKNKTIVALIEDGTHVVQYGDVGLSKQTLFVYMGTDPANDNNTFTDKNSLGTPRKAVSQRDADLIHYWEKYRRAPEGSSRKAEAKKQLREVMAHRMHIDNSVKHIGKLLFGIEKGHKMLNNVRPAGLPVVDDWDCFKTLIRTFETHCGSLSEYGMKHMRSFANLCNAGIRKEQMAEASAQACVSIPDNPWSSLHAGFSV
With B1 the “kcat relative to OaAEP1b” value [1] was “about 90 times”.

B2: OaAEP1: wild type asparaginyl endopeptidase from Oldenlandia affinis, SEQ ID NO:3, weak peptide cyclase (protein, listed as Ovaloparmena affinis)
chain: MVRYLAGAVLLLVVLSVAAAVSGARDGDYLHLPSEVSRFFRPQETNDDHGEDSVGTRWAVLIAGSKGYANYRHQAGVCHAYQILKRGGLKDENIVVFMYDDIAYNESNPRPGVIINSPHGSDVYAGVPKDYTGEEVNAKNFLAAILGNKSAITGGSGKVVDSGPNDHIFIYYTDHGAAGVIGMPSKPYLYADELNDALKKKHASGTYKSLVFYLEACESGSMFEGILPEDLNIYALTSTNTTESSWCYYCPAQENPPPPEYNVCLGDLFSVAWLEDSDVQNSWYETLNQQYHHVDKRISHASHATQYGNLKLGEEGLFVYMGSNPANDNYTSLDGNALTPSSIVVNQRDADLLHLWEKFRKAPEGSARKEEAQTQIFKAMSHRVHIDSSIKLIGKLLFGIEKCTEILNAVRPAGQPLVDDWACLRSLVGTFETHCGSLSEYGMRHTRTIANICNAGISEEQMAEAASQACASIP
With B2 the “protein ligation activity (control ligation experiments)” value [2] was “but not with the OaAEP1 wild type construct”, the “ligation of SNAP tag protein with Ubiquitin” value ([2]; 5 μM SNAP tag, 100 nM Cys247Ala, 4000 nM wild type OaAEP1b) was “not” and the “pH optimum of activation” value ([3]; activation for 3 hours) was 3.4-4.0 pH and 3.4 to 4 pH. The “turn-over rate (kcat)” value [4] was 0.052 s⁻¹.

B3: Cys217Ser (protein)
chain: B2 chain with C217S
In the case of B3, the “activation in trans by wild type OaAEP1” value [5] is reported as “could be rescued in trans by addition of only 10% of wild type OaAEP1” and the “activation and ligase activity of active site mutant” value [3] is reported as “only displayed background level activation and ligase activity”.

B4: Asn346Ala-Gln347Ala-Asp349Ala-Asp351Ala (protein)
chain: B2 chain with N346A, Q347A, D349A, D351A
In the case of B4, the “activation in trans by wild type OaAEP1” value [5] is reported as “could not be rescued in trans”, the “self-activation (auto-activation)” value [3] is reported as “most significantly impaired auto-activation activity” and the “self-activation (auto-activation)” value ([3]; listed as A4) is reported as “more severe loss of function phenotype”.

B5: Cys217Ala (protein)
chain: B2 chain with C217A
In the case of B5, the “activation in trans by wild type OaAEP1” value [5] is reported as “trans-cleavage and activation of most of the AEP-FL Cys217Ala after 18 hours” and the “self-activation (auto-activation)” value [3] is reported as “devoid of self-activation activity”.

B6: AEP-holo (activated form of OaAEP1, without the C-terminal cap domain) (enzyme)
chain: SVGTRWAVLIAGSKGYANYRHQAGVCHAYQILKRGGLKDENIVVFMYDDIAYNESNPRPGVIINSPHGSDVYAGVPKDYTGEEVNAKNFLAAILGNKSAITGGSGKVVDSGPNDHIFIYYTDHGAAGVIGMPSKPYLYADELNDALKKKHASGTYKSLVFYLEACESGSMFEGILPEDLNIYALTSTNTTESSWCYYCPAQENPPPPEYNVCLGDLFSVAWLEDSDVQNSWYETLNQQYHHVDKRISHASHATQYGNLKLGEEGLFVYMGSNPANDNYTSLDGNALTPSSIVVNQRDAD
notes: also called mature OaAEP1
B6: no binding [6].

Reference: patent US11795488B2, “Methods for enzymatic peptide ligation” (NANYANG TECHNOLOGICAL UNIVERSITY, priority 2016, dated 2023)
